Measured values from patent publication US20230105029A1 (CHIA TAI TIANQING PHARMACEUTICAL GROUP, published 2023).
Read-outs that look alike come from different tables or passages of the source.

Tests used:
[1] = molecular target: human IL4Rα expressed on HEK293T-IL4Rα-STAT6-STAT6LUC-LB2 cells (human, UniProt P24394 26-825); assay: cell-based or functional assay
[2] = molecular target: T1, recombinant human IL4Rα-his protein (in house made) (human, UniProt P24394 26-232, limits assumed); assay: capture ELISA, biotin-IL4Rα-his
T1 construct: also called Human IL4Ra-his
Method: Plates were washed once with wash buffer (PBS+0.05% w/v Tween-20, PBST) and then blocked with 200 μl/well blocking buffer (5% w/v non-fatty milk in PBST) for 2 hours at 37° C. Plates were washed again and incubated with 100 μl/well serially diluted anti-IL4Rα antibodies of the disclosure, the benchmark or negative control hIgG (human immunoglobulin (pH4) for intravenous injection, Hualan Biological Engineering Inc.) (5-fold dilution in 2.5% w/v non-fatty milk in PBST, starting at 66.7 nM) for 40 minutes at 37° C., and then washed 4 times again. Plates containing captured anti-IL4Rα antibodies were incubated with biotin-labeled human IL4Rα-his protein (in house made with SEQ ID NO: 57, 0.14 nM in 2.5% w/v non-fatty milk in PBST, 100 μl/well) for 40 minutes at 37° C., washed 4 times, and incubated with streptavidin conjugated HRP (1:10000 dilution in PBST, Jackson Immuno Research, Cat #016-030-084, 100 μl/well) for 40 minutes at 37° C. After a final wash, plates were incubated with 100 μl/well ELISA substrate TMB (Innoreagents, Cat #TMB-S-002). The reaction was stopped in 10 minutes at 25° C. with 50 μl/well 1M H₂SO₄, and the absorbance was read at 450 nm. Data was analyzed using Graphpad Prism software and EC₅₀ values were reported.

[3] = molecular target: T2, human IL4Rα expressed on 293F-IL4Rα cells (human, UniProt P24394 26-825); assay: flow cytometry, 293F-IL4Rα cells
T2 construct: whole, on cells; also called cell surface human IL4Rα
Method: (§1) Then, 2×10⁵ cells per well in 96 well-plates were incubated in 100 μL of the anti-IL4Rα antibodies or controls of various concentrations (starting at 80 nM with a 4-fold serial dilution) in FACS buffer for 40 minutes on ice. […] Following an incubation of 40 minutes at 4° C. in dark, cells were washed three times and resuspended in FACS buffer. Fluorescence was measured using a Becton Dickinson FACS Canto II-HTS equipment. Data was analyzed using Graphpad Prism software and EC₅₀ values were reported.

[4] = molecular target: T2, human IL4Rα expressed on 293F-IL4Rα …; assay: flow cytometry, 293F-IL4Rα cells; remark: listed apart in the source
Method: as §1

[5] = molecular target: T2, human IL4Rα expressed on 293F-IL4Rα …; assay: flow cytometry, 293F-IL4Rα cells; remark: listed apart in the source
Method: as §1

[6] = molecular target: T3, cynomolgus monkey IL4Rα-his protein (cynomolgus monkey, UniProt A0A2K5V580 33-239); assay: indirect ELISA, coated cyno IL4Rα-his
T3 construct: Bought protein; also called Cynomolgus IL4Rα; Cyno-IL4Rα-his; not shown: his tag
Method: The anti-IL4Rα antibodies' cross-reaction with cynomolgus IL4Rα proteins or cal-IL4Rα-his proteins were measured. Briefly, 96-well micro plates were coated with 2 μg/ml cynomolgus IL4Rα-his protein (Sino biological inc., Cat #90897—C08H) or 0.2 μg/ml cal-IL4Rα-his protein (Custom made by Sino biological inc., Cat #BAX2) in carbonate/bicarbonate buffer (pH 9.6), 100 μl/well, for 2 hours at 37° C. ELISA plates were washed once with wash buffer (PBS+0.05% w/v Tween-20, PBST) and then blocked with 200 μl/well blocking buffer (5% w/v non-fatty milk in PBST) for 2 hours at 37° C. Plates were washed again and incubated with 100 μl/well serially diluted anti-IL4Rα antibodies of the disclosure or controls (0.004-66.7 nM, 5-fold serial dilution in 2.5% w/v non-fatty milk in PBST, starting at 66.7 nM) for 40 minutes at 37° C. […] After a final wash, plates were incubated with 100 μl/well TMB (Innoreagents). The reaction was stopped 3-10 minutes later at 25° C. with 50 μl/well 1M H₂SO₄, and the absorbance was read at 450 nm. Data was analyzed using Graphpad Prism software and EC₅₀ values were reported.

[7] = molecular target: T3, cynomolgus monkey IL4Rα-his protein; assay: indirect ELISA, coated cyno IL4Rα-his; remark: listed apart in the source
[8] = molecular target: T2, human IL4Rα expressed on 293F-IL4Rα …; assay: flow cytometry on 293F-IL4Rα cells
Method: as §1

[9] = molecular target: T2, human IL4Rα expressed on 293F-IL4Rα …; assay: flow cytometry on 293F-IL4Rα cells; remark: listed apart in the source
[10] = molecular target: T1, recombinant human IL4Rα-his protein (in …); assay: SPR (Biacore), antibody captured, IL4Rα-his flowed
Method: Briefly, goat anti-mouse IgG (GE healthcare, Cat #BR100838, Mouse Antibody Capture Kit) was covalently linked to a CMS chip (carboxy methyl dextran coated chip) via primary amines, using a standard amine coupling kit provided by Biacore (GE healthcare, Pittsburgh, Pa., USA). Un-reacted moieties on the biosensor surface were blocked with ethanolamine. Then, purified anti-IL4Rα antibodies of the disclosure at the concentration of 66.67 nM and an anti-IL4Rα benchmark (Dupilumab®, also referred to as BM) at 10 μg/ml, were flowed onto the chip at a flow rate of 10 μL/min. Then, serially diluted recombinant human IL4Rα-his (in house made, amino acid sequence set forth in SEQ ID NO: 57), cynomolgus monkey IL4Rα-his protein (Sino biological inc., Cat #90897—C08H), or marmoset monkey IL4Rα-his protein (Custom made by Sino biological inc., also referred to as cal-IL4Rα-his, amino acid sequence set forth in SEQ ID NO: 58) in HBS EP buffer (provided by Biacore) was flowed onto the chip at a flow rate of 30 μL/min. The antigen-antibody association kinetics was followed for 2 minutes and the dissociation kinetics was followed for 10 minutes. The association and dissociation curves were fit to a 1:1 Langmuir binding model using BIA evaluation software.

[11] = molecular target: T1, recombinant human IL4Rα-his protein (in …); assay: SPR (Biacore), antibody captured, IL4Rα-his flowed; remark: listed apart in the source

| Binder | Inhibition on IL4 induced STAT6 phosphorylation (IC50, nM) [1] [nM] | Inhibition on IL13 induced STAT6 phosphorylation (IC50, nM) [1] [nM] | EC50 [2] [nM] | EC50 [3] [nM] | EC50 [4] [nM] | EC50 [5] [nM] | EC50 [6] [nM] | EC50 [7] [nM] | EC50 [8] [nM] | EC50 [9] [nM] | Kd [10] [nM] | koff [10] [s⁻¹] | kon [10] [M⁻¹ s⁻¹] | Kd [11] [nM] | binding result [6] |
| --- | --- | --- | --- | --- | --- | --- | --- | --- | --- | --- | --- | --- | --- | --- | --- |
| mouse antibody C2C1A1A1 (antibody, V domains shown, Mouse hybridoma mAb; also called Mouse C2C1A1A1) VH: EVQLVESGGGLVQPGGSLKLSCAASGFTFSTYGMSWVRQTPDKRLELVATINSNGGSTSYPDSVKGRFTISRDNAKNTLYLQMSSLKSEDTAMFYCARFFRFRNAMDYWGQGTSVTVSS VL: DIQMTQSPASLSASVGETVTITCRTSENIYSYLAWYQQKQGKSPQFLVYNAKTLAEGVPSRFSGSGSGTQFSLNINSLQSEDFGSYYCQHYYGPPTWTFGGGTKLEIK | 0.16 | 0.23 | 0.08 | 0.16 | 0.31 | – | 0.33 | – | 0.159 | 0.307 | 0.0401 | 1.16e-05 | 290000 | 0.119 | – |
| mouse antibody B1D2F7D3B5 (antibody, V domains shown, Mouse hybridoma mAb) VH: EVKLVESGGGLVKPGGSLKLSCAASGFTFSSYAMSWVRQTPEKRLEWVASISSGDSTYYLDSVKGRFTISRDNAMNILYLQMSSLRSEDTAVYYCERSGGSAPYWGQGTLVSVSA VL: QIVLTQSPAIMSASPGEMVTISCSASSSVSYMYWYQQKPGSSPKPWIYRTSNLASGVPARFSGSGSGTSYSLTISSMEAEDAATYYCQQYHSFPLTFGAGTKLELK | 0.17 | 0.48 | 0.06 | 0.25 | – | – | – | – | 0.246 | – | 0.623 | 0.000266 | 427000 | – | no binding (tested: 66.7 nM (highest concentration tested)) |
| mouse antibody B9D1D11F8D8 (antibody, V domains shown, Mouse hybridoma mAb) VH: EVKLVESGGGLVKPGGSLKLSCAASGFTFSSYAMSWVRQTPEKRLEWVASISSGDSTYYLDSVKGRFTISRDNARNILYLQVSSLRSEDTAMYYCERSGGSAPYWGQGTLVTVSA VL: QIVLTQSPAIMSASPGDMVTISCSASSSVNYMYWYQQKPGSSPKPWIYRTSNLASGVPARFSGSGSGTSYSLTISSMEAEDAATYYCQQYHSFPLTFGAGTKLELK | 0.23 | 0.36 | 0.07 | 0.22 | – | – | – | – | 0.221 | – | 0.655 | 0.000274 | 418000 | – | no binding (tested: 66.7 nM (highest concentration tested)) |

Second part, led by results:

| Inhibition on IL4 induced STAT6 phosphorylation (IC50, nM) [1] [nM] | Inhibition on IL13 induced STAT6 phosphorylation (IC50, nM) [1] [nM] | EC50 [2] [nM] | EC50 [3] [nM] | EC50 [4] [nM] | EC50 [5] [nM] | EC50 [6] [nM] | EC50 [7] [nM] | EC50 [8] [nM] | EC50 [9] [nM] | Kd [10] [nM] | koff [10] [s⁻¹] | kon [10] [M⁻¹ s⁻¹] | Kd [11] [nM] | Binder | binding result [6] |
| --- | --- | --- | --- | --- | --- | --- | --- | --- | --- | --- | --- | --- | --- | --- | --- |
| 0.23 | 0.47 | 0.04 | 0.25 | 0.41 | 0.33 | 0.29 | 0.5 | 0.251 | 0.412 | 1.49 | 0.000293 | 197000 | 2.98 | mouse antibody B8G11F2B7G5E8 (antibody, V domains shown, Mouse hybridoma mAb; also called Mouse B8G11F2B7G5E8; mAb B8G11F2B7G5E8) VH: EVQLQQSGADLVRPGASVKLSCTASGFNIKDTYMHWVKQRPEQGLEWVGRIDPTNGYTIYASKFQGKATITADTSSNTAYMQLSSLTSGDTAVYHCVSRRPWFAYWGQGTLVTVSA VL: DILMTQTPLSLPVSLGAQASISCRSSQSIVHSNGNTYLEWYLQKPGQSPKLLIYKVTNRFSGVPDRFSGSGSGTDFTLKISRVEAEDLGIYYCFQGSHVPYTFGGGTKLEIK | – |
| – | – | – | – | 0.78 | 0.44 | – | 1.06 | – | 0.775 | – | – | – | 2.99 | chimeric antibody B8G11F2B7G5E8 (antibody, human IgG4 S228P, kappa, V domains shown, Mouse variable domains on human IgG4/kappa; also called Chimeric B8G11F2B7G5E8; chB8G11F2B7G5E8) VH: EVQLQQSGADLVRPGASVKLSCTASGFNIKDTYMHWVKQRPEQGLEWVGRIDPTNGYTIYASKFQGKATITADTSSNTAYMQLSSLTSGDTAVYHCVSRRPWFAYWGQGTLVTVSA VL: DILMTQTPLSLPVSLGAQASISCRSSQSIVHSNGNTYLEWYLQKPGQSPKLLIYKVTNRFSGVPDRFSGSGSGTDFTLKISRVEAEDLGIYYCFQGSHVPYTFGGGTKLEIKR | – |
| – | – | – | – | 0.63 | 0.33 | – | 0.6 | – | 0.63 | – | – | – | 0.522 | chimeric antibody C2C1A1A1 (antibody, human IgG4 S228P, kappa, V domains shown, Mouse variable domains on human IgG4/kappa; also called Chimeric C2C1A1A1; chC2C1A1A1) VH: EVQLVESGGGLVQPGGSLKLSCAASGFTFSTYGMSWVRQTPDKRLELVATINSNGGSTSYPDSVKGRFTISRDNAKNTLYLQMSSLKSEDTAMFYCARFFRFRNAMDYWGQGTSVTVSS VL: DIQMTQSPASLSASVGETVTITCRTSENIYSYLAWYQQKQGKSPQFLVYNAKTLAEGVPSRFSGSGSGTQFSLNINSLQSEDFGSYYCQHYYGPPTWTFGGGTKLEIKR | – |
| 0.17 | 0.31 | 0.13 | 0.18 | – | – | 108 | – | 0.183 | – | 0.554 | 0.000139 | 251000 | – | mouse antibody C2B2F7B7 (antibody, V domains shown, Mouse hybridoma mAb) VH: EVQLVESGGGLVQPGGSLKLSCAASGFTFSTYGMSWVRQTPDKRLELVATINSNGGSTNYPDSVKGRFTISRDNAKNTLYLQMSSLKSEDTAMYYCARFFRIRNAMDYWGQGTSVTVSS VL: DIQMTQSPASLSASVGETVTITCRASENIYSYLAWYQQKQGKSPQFLVYNAKTLAEGVPSRFSGSGSGTQFSLKINSLQPEDFGSYYCQHYYGTPTWTFGGGTKLEIK | – |
